Target: recombinant rat F1-ATPase β-subunit (purified protein) (rat) (UniProt P10719)
Assay: BiaCore surface plasmon resonance, purified F1-ATPase β-subunit

UniProt P10719, sequence (P10719 47-529): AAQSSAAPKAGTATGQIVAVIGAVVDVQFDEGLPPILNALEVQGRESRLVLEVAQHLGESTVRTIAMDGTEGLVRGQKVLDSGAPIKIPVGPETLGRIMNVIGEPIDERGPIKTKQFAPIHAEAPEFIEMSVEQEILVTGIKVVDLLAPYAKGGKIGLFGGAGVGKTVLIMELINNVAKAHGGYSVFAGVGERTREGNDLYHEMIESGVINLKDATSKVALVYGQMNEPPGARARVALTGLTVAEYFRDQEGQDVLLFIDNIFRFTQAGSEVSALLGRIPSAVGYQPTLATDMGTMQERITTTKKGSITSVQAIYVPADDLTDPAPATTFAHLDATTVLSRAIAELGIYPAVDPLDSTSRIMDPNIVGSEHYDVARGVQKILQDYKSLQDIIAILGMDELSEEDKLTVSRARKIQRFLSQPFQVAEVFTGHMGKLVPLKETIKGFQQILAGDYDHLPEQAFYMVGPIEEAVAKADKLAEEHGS

enterostatin (peptide) showed a Kd of 150 nM.

— US20090208976A1
